The results in this text go back to a protein production outcome set (Wang et al. 2014).

This data set can be described thus: label from the status in PepcDB records.
Take “MASTAVSELVFFIVTLLITASAVAVLSDQTIHIVYGMQSSSQRTTDMIQENFAIINNPDQIPYDNGYVFYIKNTGSVGFAFDNTSISVLVDGSAVTGKYVKFISLENSSILVPGQVGEIVVNETLSGYNSITISLGTGVSHTFNFEV”: the protein production entry is on record as “failed”.
Turning to “MASYYEILDVPRSASADDIKKAYRRKALQWHPDKNPDNKEFAEKKFKEVAEAYEVLSDKHKREIYDRYGREGLTGTGTGPSRAEAGSGGPGFTFTFRSPEEVFREFFGSGDPFAELFDDLGPFSELQNRGSRHSGPFFTFSSSFPGHSDFSSSSFSFSPGAGAFRSVSTSTTFVQGRRITTRRIMENGQERVEVEEDGQLKSVTINGVPDDLALGLELSRREQQPSVTSRSGGTQVQQTPASCPLDSDLSEDEDLQLAMAYSLSEMEAAGKKPAGGREAQHRRQGRPKAQHQDPGLGGTQEGARGEATKRSPSPEEKASRCLIL”, the protein production result is recorded as “not failed”.
With “MASYYSGFLGCEEPHFLESCSLCRKHLGLNSDIFMYRGDKAFCSNECREEQIESDEAKERKWKKSSRSLRKNSSETKESAAGNTVRTGTLVVA”, the protein production result was “failed”.
For the sequence “MATEPEAAEPVVPSLVDRYFTRWYKPDVKGKFCEDHCILQHSNRICVITLAESHPVLQSGKTIKSISYQISTNCSRLQNKVSGKFKRGAQFLTELAPLCKIYCSDGEEYTVSSCVRGRLMEVNENILHKPSILQEKPSTEGYIAVVLPKFEESKSITEGLLTQKQYEEVMVKRINATTATS”, the protein production result was “failed”.
With “MATEPIRIGVVGASPDRGWAADAHLPALQHLPQYKITAVGTRRADSAHRAARRYGATHAFTDPRSLAAHPDVELVAIVVKVPDHARLVEAALAAGKHVLCEWPLARTTEEAAQLTAAAHGAGVVNAVGLQARHTPTVVRARELIRQGYVGRVTSVTVYSTRGVAAGGRLPAAFAYTLDSTNGAGTLEVAGGHTLDAVQYLLGREMTGLSAALSVQHPRITLDEDARQTGATSPDHVALHATLEGGAALVVHIHDAKNSGAGTRIEISGTQGELAIVSTGPRSGSGLQISELALLGAQGTEPSGQELPFPGSWGTAVPADGLDAAQHTMAVQYAALAADIREGGSRVPRFADGIELHRLLDAVRLSSATGCRLERRAGERWPVSSPWPRRRRSR”, the protein production result is given as “failed”.
The entry for “MATEPPKIVWNEGKRRFETEDHEAFIEYKMRNNGKVMDLVHTYVPSFKRGLGLASHLCVAAFEHASSHSISIIPSCSYVSDTFLPRNPSWKPLIHSEVFKSSI” is “not failed”.
With “MATFDTRHRTALTMSADRLEQLKTFHEEDPEDPFTRYALAQEHLKHDNASRALALFEELVETDPDYVGTYYHLGKLYERLDRTDDAIDTYAQGIEVAREEGTQKDLSELQDAKLKAEGLEHHHHHH”, the protein production result was “not failed”.
Consider “MATFEEVSVLGFEEFDKAVKEHESKTIFAYFSGSKDTEGKSWCPDCVEAEPVIREGLKHVTEDCVFIYCQVGDKPYWKDPNNDFRQKLKITAVPTLLKYGTPQKLVESECCQSSLVEMIFSED”, for which the protein production result was “not failed”.
For “MATFFLVSFLSFSKWKEKRQVGLWGPEAAVTEEEEEEAGARRSGPGLAGRRLRGKGRRGRVASPAGRPDTLSRRGAGERAGCLGAGDRGLRHSDRHSPLGRGRAAPGMATSRQTASPRTRMDYLYSCQVDAMHSGMSVTRLVTQPDVLPAHRRRDIKMAAPRSCVLWSYCGHGWSRLAGDCRLPGFRRSWLGATLSARSLSQEKRAAETHFGFETVSEKEKGGKVYQVFQSVARKYDLMNDMMSLGIHRAWKDLLIRKMHPLPGTQLLDVAGGTGDIAFRFLSYVQTQHERKQRRQLRTRQNLSWEEIARKYQSKEDPLGGSLVMVCDINREMLKVGKQKALARGHTADLCECDAKLVYTVSFSSRSFTQALQEAHRVLKPGGRFLCLEFSQVNDPLISRLYDLYSFQVIPVIGEVIAGDWKSYQYLVESIRKFPNQEEFKDMIEDAGFQKVTYESLTSGIVAIHSGFKL”, the protein production entry is listed as “failed”.
In the case of “MATFRKRGKYWEYRVKYTDSAGKQLVASHGGYRLKSSAQDAAEAVEDDLKRGGDPSKQDVLLLDYWDQWAEAYRINGKSINTVYRYKLFRKHLKSRFDGRKLNSIRPIEWQKFINDFAAGKDRKEKTTRKRPRERSKDIVTKMNSYVRGMVKAAINERILFSDFTFGTKTSGVRSSGKVKVLDSRDFAKVKAIAIERASYRNIGALAVYIGSMTGMRISEVLALTWPDIDTKLCVIHVTRSWDHLYGTGFKPTKTDSSVRDIEISPSVIELLNKIHQEQAASYLRTGYRDEDQMIMRDPRHNVITDSACNKALHVIQNKAGIPEDKQITFHGLRHSHVSYLISKGVDIYYISKRLGHSDVTITMKVYGHLLDSQRKQEAHKAVLFMDQI”, the protein production entry is “failed”.
As to “MATGGLAIIQSMKHKLPPSERKLADYILAHPHKAIESTVNEISALANSSDAAVIRLCKSLGLKGFQDLKMRVAGDLAKPTFQGYRDIVPHEPLPSISEKTAGNAIQAIQDTSDLMDYKELERAVSLLLKAHTVHFIGLGASGIVAKDAQQKWLRIHKQATAFTDTHLVASLIANADKDDIVFAISFSGETQEIVELFAMAKEKGITTISLTQFSQTSVSALADVPLYTAHSNEALIRSAATSSRLAQLFIIDVLFLGMAAEQYETTTGYIDKTRAAIQSMRIK”, the protein production entry is on record as “not failed”.
With “MATMNEKDYYEILGVSKDATSRDIQKAFQQKARKLHPDVNKEPDAEEKFKEVSEAYAVLSDEQKRARYDAMRSGNPFAGAPTASPYGGGYAGSAGYGNPFDGGFPFGGAWGQPRRGQAAYNPESGANVVVDIKLDAKEAKSGAHKTVRYTRFDTCGHCGGSGSVSSEHAHTCPSCGGRGHIDVDLSFLFGAGTFQTVCPECGGSGKVVADPCPDCGGSGRIRVTSEQTIEFPAGTHDGDEVRIPNMGHAGTNGASGGDLVGRAHVEAERLEGKARTGFYLMGIIAPFLVLSAISGVFSAFAMMCFIPFAMGLFMVLSDGVLHRSLLWWKRGAMQFANGFANGFMFALVSVWFASCSQQAMLSPYGMQ” the entry was “failed”; with “MATNIPCEVVAFSDRKLKPLIYVYSFPGLTRRTKLKGNILLDYTLLSFSYCGTYLASYSSLPEFELALWNWESSIILCKKSQPGMDVNQMSFNPMNWRQLCLSSPSTVSVWTIERSNQEHCFRARSVKLPLEDGSFFNETDVVFPQSLPKDLIYGPVLPLSAIAGLVGKEAETFRPKDDLYPLLHPTMHCWTPTSDLYIGCEEGHLLMINGDTLQVTVLNKIEEESPLEDRRNFISPVTLVYQKEGVLASGIDGFVYSFIIKDRSYMIEDFLEIERPVEHMTFSPNYTVLLIQTDKGSVYIYTFGKEPTLNKVLDACDGKFQAIDFITPGTQYFMTLTYSGEICVWWLEDCACVSKIYLNTLATVLACCPSSLSAAVGTEDGSVYFISVYDKESPQVVHKAFLSESSVQHVV”, “failed”; with “MATNSSTEQSLTKKVWNLATTLAGQGIGFTDYITQLTYLLFLKMDAENVEMFGEESAIPTGYQWADLIAFDGLDLVKQYEETLKLLSELDNLIGTIYTKAQNKIDKPVYLKKVITMIDEEQWLIMDGDVKGAIYESILEKNGQDKKSGAGQYFTPRPLIQAMVDCINPQMGETVCDPACGTGGFLLTAYDYMKGQSASKEKRDFLRDKALHGVDNTPLVVTLASMNLYLHGIGTDRSPIVCEDSLEKEPSTLVDVILANPPFGTRPAGSVDINRPDFYVETKNNQLNFLQHMMLMLKTGGRAAVVLPDNVLFEAGAGETIRKRLLQDFNLHTILRLPTGIFYAQGVKANVLFFSKGQPTKEIWFYDYRTDIKHTLATNKLERHHLDDFVSCYNNRVEIYDAENNPQGRWRKYPVDEIIARDKTSLDITWIKPGGEVDDRSLAEL”, “not failed”.
As for “MATPAYMSITGTKQGLITAGAFTADSVGNTYQEGHEDQVMVQGFSHELIIPRDPQSGQPTGQRVHKPVKITKVFDKSSPLLLAALTSGERLTEITIQWYRTSAAGTQEHYYTTKLEDAIIVDIKDYMHNCQDPANAHFTHLEDVEFTYRKITWTHEVSGTSGSDDWRSPVAG”, the protein production result is “not failed”.
For the sequence “MATQLVKGNTAVIIGAMYAGCDCYFGYPITPASEILHEASKYFPMVGRKFVQAESEEAAINMVYGAASTGKRVLCATSGPGMSLKQEGISFLAGSELPCVLVNVQRAGPGLGNIGPEQADYNQAVKGGGHGNYKNIVLAPNSVQEMCDCTAKAFELATKYKNPVIVLSDGVLGQMVEPLKFPEQAIKPEIDESWAVRGTKETRKNLVTSIFLDFKQLEEFNYALQEKYEIIKENEQDFEGYQLDDAEIILVSYGISSRISKTAVDVARKEGIKAGLFRPKTLFPFPEKELNKLAEKKCTFISVEMSNGQMAEDIKLATCCKRPIELVNRLGGNLIEVDQILAKIKEIAGGN”, the protein production result is given as “failed”.
On to “MATRNALRIVSRRFSSGKVLSEEERAAENVFIKKMEQEKLQKLARQGPGEQAAGSASEAKVAGATASASAESGPKVSEDKNRNYAVVAGVVAIVGSIGWYLKAGGKKQPEVQE”, for which the protein production entry is “failed”.
“MATSGFKHLVVVKFKEDTKVDEILKGLENLVSQIDTVKSFEWGEDKESHDMLRQGFTHAFSMTFENKDGYVAFTSHPLHVEFSAAFTAVIDKIVLLDFPVAAVKSSVVATP”: the protein production entry is given as “not failed”.
With “MATSGTYVTEVPLKGSAKNHYKRWKSENQLFPDAIGHHIQGVTVHEGDWDSHGAIKSWNYTCDGKQEVFKEKRELDDQKMAVTFRGLDGHVMEQLKVYDVIFQFVPKSQEGCVCKVTMFWEKRYEDSPEPIKYMKFVTSLAADMDDHILKNQSKA” the entry was “failed”; with “MATTNYSMIFIGNLQVAVDRSSLYESSDYSSFVARECLNKDSAMKPYDIFIFEKDEHFSVEDHYTAGNSSNESNTRPSDIFLKKKLVGLNPSILQLNREKRKATLKFSGDNKDILQSTLSSSKNINLSGGLFVSREYENKYVKFGARMRCDLVNRMKDVTLAWHESVSSTSDKNVELSSVENHKIAPKADGPGNSSNESSSSPFDIFLKKKVMRLKPSFLELNREKKKAAKGFSGIVIRPGMVLLKNYLSINNQVMIVNKCRQLGLGEGGFYQPGFQDGGLLHLKMMCLGKNWDCQTRRYGEIRPIDGSVPPRIPVEFSQLVEKAIKESKSLVATNSNETKGGDEIPLLLPDICVVNFYTSTGKLGLHQDKGESKKSLRKGLPIVSFSIGDSAEFLYGDQKDVDKADTLILESGDVLIFGERSRNVFHGVRSIRKILPPRLFFRKQIFNQVV”, “failed”.
For “MAVFVALGAFLMTLAGGWTAQRVTDRRHLVLGLAGGLMLGVVGLDLLPEALEAAGDEVFGVPAALLLFVAGFLLAHLVERLLAARRAAHGADEHEHRSPEVGLTAAAAMVGHSAMDGVAIGAAFQVGGGMGAAVAMAVIAHDFADGFNTYTLTSLYGNARRRAVAMLVADAIAPVLGASSTLLFTIPEGALGAYLGLFGGVLLYLAAAEILPEAHHEHPARSTLLCTVAGAAFIWLVVGIAE”, the protein production entry was “failed”.
With “MAVGKKDIECPPYAEGTPLSDADIKEKRVTYVEDHPDIRYSWTAGQAISKFLNGLKEGKILGVKCNKCGRVMVPPRMFCELCYKPIDGWVELKDTGTVETFSISYIDPDARPLPEPVIVAVISIDGASPHMGIMHILDEVKPEDVYIGMKVKAVWKSEEEREGAITDIKYWKPLEGLEHHHHHH” the entry was “failed”.
“MAVLYAGRPVQKCERSRLMFNIDQPDSAPDNEDHDGDVVMHGQGSFFGRRKGHKLRAHQADLIENLLPHLSLQIDSPAPEPLTTLFDPPVEHMRLEIGFGGGEHLIAEALAHPDTGFIGAEPYVNGMAKILARIEAENIRNIRLFAGDASELLAWVPAGSLARIDLIHPDPWPKRRHWKRRFVQDATVAAMARALTPHGEFRFVCDIDGYTAWTLAHLLRAPCFDWLAQRADDWRKPWPNYTMTRYGRKAEREGRRANYLRFERL”: the protein production result was “failed”.
